By EC50 (read off the curve) is commonly meant the concentration that produces a half-maximal response.

The source of these data is patent publication US20240084027A1 (BEIJING MABWORKS, published 2024).

The target of assay [1] is T1, monkey CD40 on HEK293A/monkey CD40 cells (monkey, UniProt P25942 21-277 (human entry)).
T1 chain: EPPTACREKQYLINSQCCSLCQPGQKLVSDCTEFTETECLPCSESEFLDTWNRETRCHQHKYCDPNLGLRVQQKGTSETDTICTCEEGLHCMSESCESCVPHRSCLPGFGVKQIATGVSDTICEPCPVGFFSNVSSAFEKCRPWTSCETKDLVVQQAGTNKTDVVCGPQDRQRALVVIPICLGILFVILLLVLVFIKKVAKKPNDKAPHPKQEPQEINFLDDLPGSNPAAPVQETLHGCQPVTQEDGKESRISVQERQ
Description: FACS on HEK293A/monkey CD40 cells. The protocol: (§1) The bispecific antibodies as prepared above were tested for their binding capability to cell surface human, monkey and mouse CD40 proteins by FACS, using the HEK293A cells prepared in Example 1 that stably expressed human, monkey or mouse CD40. Briefly, a 96-well plate was seeded with 10⁵ HEK293A cells in 50 μl PBS, and then added with 100 μl serially diluted anti-CD40 antibody 714VH2VL2 and the bispecific antibodies of the disclosure (starting concentration at 40 μg/ml). After incubation at 4° C. for 1 h, the plate was washed by PBST for 3 times. The plate was added with 1:500 diluted APC-goat anti-mouse IgG (Cat #:405308, BioLegen, USA), incubated at 4° for 1 h, washed with PBS for 3 times, and subjected to fluorescence measurement in a FACS machine (BD).

For assay [2], the target named is monkey PD-L1 on HEK293A/monkey PD-L1 cells (monkey, UniProt Q9NZQ7 19-290 (human entry)). Briefly: FACS on HEK293A/monkey PD-L1 cells. How it is done:
as §1
(§2) Following the protocol of Example 4, the bispecific antibodies were tested for their binding capability to cell surface human, or monkey PD-L1 proteins by FACS, using the HEK293A cells prepared in Example 1 that stably expressed human or monkey […].

For assay [3], the target named is T2, human CD40 on HEK293A/human CD40 cells (human, UniProt P25942 21-277).
T2 construct: also called HEK-Blue/CD40 cells
Description: FACS on HEK293A/human CD40 cells. The protocol:
as §1

The target of assay [4] is T3, mouse CD40 on HEK293A cells (mouse, UniProt P27512 20-289).
T3 sequence: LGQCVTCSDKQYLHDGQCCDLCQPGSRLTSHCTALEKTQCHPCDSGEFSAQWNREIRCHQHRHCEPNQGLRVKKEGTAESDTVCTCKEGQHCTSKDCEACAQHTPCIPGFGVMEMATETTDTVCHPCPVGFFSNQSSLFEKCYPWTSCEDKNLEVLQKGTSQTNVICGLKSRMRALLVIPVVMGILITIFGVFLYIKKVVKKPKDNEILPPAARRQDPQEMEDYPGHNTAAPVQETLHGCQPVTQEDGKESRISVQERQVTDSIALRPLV
Description: FACS on HEK293A cells expressing mouse CD40. How it is done:
as §1

In assay [5] the target is human PD-L1 on HEK293A/human PD-L1 cells (human, UniProt Q9NZQ7 19-290). Description: FACS on HEK293A/human PD-L1 cells. The protocol: as §1, §2
Sequence of human PD-L1 on HEK293A/human PD-L1 cells (Q9NZQ7 19-290 limits assumed): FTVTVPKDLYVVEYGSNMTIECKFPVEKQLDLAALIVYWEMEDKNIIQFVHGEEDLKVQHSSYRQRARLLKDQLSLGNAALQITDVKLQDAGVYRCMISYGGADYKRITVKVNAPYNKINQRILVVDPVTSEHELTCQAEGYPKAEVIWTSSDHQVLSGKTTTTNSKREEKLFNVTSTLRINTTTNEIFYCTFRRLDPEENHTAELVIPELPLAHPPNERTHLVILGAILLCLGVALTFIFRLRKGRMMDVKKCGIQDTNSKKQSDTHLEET

Sequence of monkey PD-L1 on HEK293A/monkey PD-L1 cells (Q9NZQ7 other isoform, or with tags, fused parts or gaps limits assumed): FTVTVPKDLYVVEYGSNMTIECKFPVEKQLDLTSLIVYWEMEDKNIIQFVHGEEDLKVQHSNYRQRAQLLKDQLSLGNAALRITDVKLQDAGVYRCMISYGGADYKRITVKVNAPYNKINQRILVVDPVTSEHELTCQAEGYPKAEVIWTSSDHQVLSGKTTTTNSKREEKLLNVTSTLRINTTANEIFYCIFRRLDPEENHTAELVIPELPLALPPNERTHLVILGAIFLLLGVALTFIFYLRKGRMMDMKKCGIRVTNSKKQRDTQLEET

B1: MBS307-2 (bispecific antibody, human IgG1, kappa, L234A L235A)
heavy: QVQLQESGPGLVKPSQTLSLTCTVSGGSITSDYWNWIRQHPGNKLEYMGYISYTGSTYYNPSLKSRISITRDTSKNQFSLKLSSVTTADTAVYYCARYRDWDVRAMDYWGQGTTVTVSSASTKGPSVFPLAPSSKSTSGGTAALGCLVKDYFPEPVTVSWNSGALTSGVHTFPAVLQSSGLYSLSSVVTVPSSSLGTQTYICNVNHKPSNTKVDKKVEPKSCDKTHTCPPCPAPEAAGGPSVFLFPPKPKDTLMISRTPEVTCVVVDVSHEDPEVKFNWYVDGVEVHNAKTKPREEQYNSTYRVVSVLTVLHQDWLNGKEYKCKVSNKALGAPIEKTISKAKGQPREPQVYTLPPSREEMTKNQVSLTCLVKGFYPSDIAVEWESNGQPENNYKTTPPVLDSDGSFFLYSKLTVDKSRWQQGNVFSCSVMHEALHNHYTQKSLSLSPGSGGGGSGGGGSQVQLQESGPGLVKPSDTLSLTCAVSGYSITTNYYWNWIRQPPGKGLEWMGYIKYDGSNNYNPSLKNRITISVDTSKNQFSLKLSSVTAVDTAVYYCARLDYWGQGTLVTVSSGGGGSGGGGSGGGGSGGGSDVVLTQSPLSLPVTLGQPASISCRSSQSLENSNGNTFLNWFQQRPGQSPRLLIYKVSNRFSGVPDRFSGSGSGTDFTLKISRVEAEDVGVYYCLQVTHVPFTFGQGTKLEIK
light: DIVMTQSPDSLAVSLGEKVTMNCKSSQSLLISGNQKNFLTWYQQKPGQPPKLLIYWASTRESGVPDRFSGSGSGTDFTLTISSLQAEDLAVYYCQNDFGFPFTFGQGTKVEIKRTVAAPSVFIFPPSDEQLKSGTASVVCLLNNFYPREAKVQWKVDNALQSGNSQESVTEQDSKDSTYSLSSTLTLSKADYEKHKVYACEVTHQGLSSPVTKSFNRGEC
notes: Symmetric: full-length anti-PD-L1 antibody (56E5VH5VL4) with an anti-CD40 scFv at the C terminus of each heavy chain
With B1, the values for the binding result in assay [1], in assay [3] and in assay [4] were “binds”, “binds” and “no binding (tested: starting concentration at 40 µg/ml)”, respectively. Further, the “EC50 (read off the curve)” value in assay [2] was roughly 0.04 µg/mL; in assay [5], roughly 0.1 µg/mL.

B2: MBS307-1 (bispecific antibody, human IgG1, kappa, L234A L235A)
heavy 1: QVQLQESGPGLVKPSDTLSLTCAVSGYSITTNYYWNWIRQPPGKGLEWMGYIKYDGSNNYNPSLKNRITISVDTSKNQFSLKLSSVTAVDTAVYYCARLDYWGQGTLVTVSSASTKGPSVFPLAPSSKSTSGGTAALGCLVKDYFPEPVTVSWNSGALTSGVHTFPAVLQSSGLYSLSSVVTVPSSSLGTQTYICNVNHKPSNTKVDKKVEPKSCDKTHTCPPCPAPEAAGGPSVFLFPPKPKDTLMISRTPEVTCVVVDVSHEDPEVKFNWYVDGVEVHNAKTKPREEQYNSTYRVVSVLTVLHQDWLNGKEYKCKVSNKALPAPIEKTISKAKGQPREPQVYTLPPSREEMTKNQVSLWCLVKGFYPSDIAVEWESNGQPENNYKTTPPVLDSDGSFFLYSKLTVDKSRWQQGNVFSCSVMHEALHNHYTQKSLSLSPGGGGSGGGGSGGGGSGGGGSGIPPHVQKSVNNDMIVTDNNGAVKFPQLCKFCDVRFSTCDNQKSCMSNCSITSICEKPQEVCVAVWRKNDENITLETVCHDPKLPYHDFILEDAASPKCIMKEKKKPGETFFMCSCSSDECNDNIIFSEEYNTSNPD
light 1: DVVLTQSPLSLPVTLGQPASISCRSSQSLENSNGNTFLNWFQQRPGQSPRLLIYKVSNRFSGVPDRFSGSGSGTDFTLKISRVEAEDVGVYYCLQVTHVPFTFGQGTKLEIKRTVAAPSVFIFPPSDEQLKSGTASVVCLLNNFYPREAKVQWKVDNALQSGNSQESVTEQDSKDSTYSLSSTLTLSKADYEKHKVYACEVTHQGLSSPVTKSFNRGEC
heavy 2: QVQLQESGPGLVKPSQTLSLTCTVSGGSITSDYWNWIRQHPGNKLEYMGYISYTGSTYYNPSLKSRISITRDTSKNQFSLKLSSVTTADTAVYYCARYRDWDVRAMDYWGQGTTVTVSSASTKGPSVFPLAPSSKSTSGGTAALGCLVKDYFPEPVTVSWNSGALTSGVHTFPAVLQSSGLYSLSSVVTVPSSSLGTQTYICNVNHKPSNTKVDKKVEPKSCDKTHTCPPCPAPEAAGGPSVFLFPPKPKDTLMISRTPEVTCVVVDVSHEDPEVKFNWYVDGVEVHNAKTKPREEQYNSTYRVVSVLTVLHQDWLNGKEYKCKVSNKALPAPIEKTISKAKGQPREPQVYTLPPSREEMTKNQVSLSCAVKGFYPSDIAVEWESNGQPENNYKTTPPVLDSDGSFFLVSKLTVDKSRWQQGNVFSCSVMHEALHNHYTQKSLSLSPGGGGSGGGGSGGGGSGGGGSGIPPHVQKSVNNDMIVTDNNGAVKFPQLCKFCDVRFSTCDNQKSCMSNCSITSICEKPQEVCVAVWRKNDENITLETVCHDPKLPYHDFILEDAASPKCIMKEKKKPGETFFMCSCSSDECNDNIIFSEEYNTSNPD
light 2: not shown
notes: Both long chains carry linker 1-TGFBII at the C terminus; also called asymmetrical anti-CD40/PD-L1 antibody MBS307-1; MBS307-1-1 + MBS307-1-2
For B2, the “EC50 (read off the curve)” value in assay [1] was roughly 0.2 µg/mL; in assay [3] it was roughly 0.2 µg/mL; in assay [5], roughly 0.3 µg/mL. For the same molecule, the binding result in assay [2] is “binds”; in assay [4] it was “no binding (tested: starting concentration at 40 µg/ml)”.
